Assay results as given in the supplement of paper PMC7877785.
± gives the uncertainty stated by the source.

Experiment: self-splicing fitness, log relative to wild type (ln ratio); higher = more splicing; Tetrahymena group I intron in knt gene, E. coli kanamycin selection, DiMSum; sequences stand for … in CUCUCU…GGAGGGAAAAGUUAUCAGGCAUGCACCUGGUAGCUAGUCUUUAAACCAAUAGAUUGCAUCGGUUUAAAAGGCAAGACCGUCAAAUUGCGGGAAAGGGGUCAACAGCCGUUCAGUACCAAGUCUCAGGGGAAACUUUGAGAUGGCCUUGCAAAGGGUAUGGUAAUAAGCUGACGGACAUGGUCCUAACCACGCAGCCAAGUCCUAAGUCAACAGAUCUUCUGUUGAUAUGGAUGCAGUUCACAGACUAAAUGUCGGUCGGGGAAGAUGUAUUCUUCUCAUAAGAUAUAGUCGGACCUCUCCUUAAUGGGAGCUAGCGGAUGAAGUGAUGCAACACUGGAGCCGCUGGGAACUAAUUUGUAUGCGAAAGUAUAUUGAUUAGUUUUGGAGUACUCGUGGUCG
In short: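 Colonies from six replicate transformations of E. coli BL21(DE3) were pooled and amplicon-sequenced on an Illumina HiSeq 2500. The library placed an intron with all eight P1ex-region nucleotides randomised inside the knt kanamycin-resistance gene on pET-22b(+), and cells grew overnight at 37°C or 30°C on LB agar with or without 25 μg/mL kanamycin (plus 100 μg/mL carbenicillin, 50 μM IPTG, 0.2% rhamnose). Fitness is the DiMSum error-weighted combination of wild-type-normalised replicate fold changes, kanamycin versus none.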

| Sequence | self-splicing fitness (ln) (30 °C) | self-splicing fitness (ln) (37 °C) |
| --- | --- | --- |
| UGUCAGCAAUAUUACGAUAC | -2.92 ± 0.24 | -2.41 ± 0.22 |
| GUAGAGCAAUAUUACGUCAU | -1.65 ± 0.1 | -1.36 ± 0.11 |
| CAGCAGCAAUAUUACGGGGC | -3.66 ± 0.14 | -2.45 ± 0.15 |
| AACCAGCAAUAUUACGUGUA | -0.891 ± 0.041 | -0.409 ± 0.049 |
| AUAGAGCAAUAUUACGGUUG | -3.21 ± 0.23 | -1.92 ± 0.22 |
| UGUGAGCAAUAUUACGGCCG | -0.763 ± 0.15 | 0.477 ± 0.27 |
| UCAGAGCAAUAUUACGCAUG | -3.13 ± 0.3 | -2.02 ± 0.21 |
| UCAAAGCAAUAUUACGACUC | -2.99 ± 0.38 | -0.37 ± 0.23 |
| ACAUAGCAAUAUUACGCGAU | -3.37 ± 0.21 | -2.35 ± 0.25 |
| GCAUAGCAAUAUUACGCUGA | -2.69 ± 0.24 | -1.06 ± 0.14 |
| GCGAAGCAAUAUUACGACUC | -0.212 ± 0.086 | 0.367 ± 0.1 |
| CAAGAGCAAUAUUACGCGAG | -2.92 ± 0.2 | -2.11 ± 0.21 |
| CUAAAGCAAUAUUACGGGGA | -3.4 ± 0.16 | -1.96 ± 0.16 |
| AACAAGCAAUAUUACGCAAA | -2.08 ± 0.17 | 0.267 ± 0.13 |
| GGAUAGCAAUAUUACGGCCU | -2.24 ± 0.29 | -0.0501 ± 0.17 |
| CAGGAGCAAUAUUACGAGGG | -3.21 ± 0.24 | -1.97 ± 0.2 |
| CGUAAGCAAUAUUACGGCCC |  | -1.43 ± 0.3 |

| Sequence | self-splicing fitness (ln) (30 °C) | self-splicing fitness (ln) (37 °C) |
| --- | --- | --- |
| AAAUAGCAAUAUUACGUCUG | -1.3 ± 0.068 | -0.843 ± 0.088 |
| ACGGAGCAAUAUUACGCACA | -2.08 ± 0.36 | -2.46 ± 0.37 |
| ACCCAGCAAUAUUACGAGGU | -3.8 ± 0.12 | -2.93 ± 0.14 |
| AAGGAGCAAUAUUACGUGAG | -3.51 ± 0.25 | -2.5 ± 0.21 |
| AUGGAGCAAUAUUACGUCGA | -3.25 ± 0.3 | -3.1 ± 0.43 |
| CGACAGCAAUAUUACGAGUA | -3.58 ± 0.18 | -1.52 ± 0.12 |
| UGUAAGCAAUAUUACGUCGC | -3.46 ± 0.33 | -1.65 ± 0.2 |
| CGGGAGCAAUAUUACGGUGC | -3.21 ± 0.49 |  |
| CUAGAGCAAUAUUACGUGUG | -0.455 ± 0.055 | 0.162 ± 0.08 |
| AGGAAGCAAUAUUACGUUUA | -2.27 ± 0.12 | -1.8 ± 0.14 |
| CUUCAGCAAUAUUACGCCUA |  | -2.38 ± 0.32 |
| GAUCAGCAAUAUUACGAUUG | -0.607 ± 0.079 | -0.237 ± 0.11 |
| UUUAAGCAAUAUUACGGCGG | -0.0601 ± 0.13 | -0.212 ± 0.18 |
| AGACAGCAAUAUUACGCAAG | -2.89 ± 0.11 | -0.553 ± 0.1 |
| GCGAAGCAAUAUUACGUCGU | -3.79 ± 0.27 | -2.6 ± 0.28 |
| GGGCAGCAAUAUUACGGCGA | -0.562 ± 0.11 | -0.245 ± 0.099 |
| AAUCAGCAAUAUUACGCCGG | -1.15 ± 0.086 | -0.932 ± 0.099 |
